This experiment has as its target GerD–mScarlet-I (Bacillus cereus ATCC 14579). The experiment can be described thus: FRET or BRET; sensitized emission (filter) FRET by wide-field fluorescence microscopy in single dormant B. cereus spores; donor SGFP2, acceptor mScarlet-I; normalized FRET (NFRET) corrected for bleed-through and cross-excitation. For orientation: In BRET a luciferase serves as donor, and the signal depends on an acceptor being close.

Take GerRB–SGFP2 (natural protein): the FRET efficiency was 6%. Then GerR(A-C-B)–SGFP2 (complex), with 6%.

(Values after publication PMC8539644.)
